This passage reports IC50 results from patent US20140221287A1, “Amylin Peptides and Derivatives and Uses Thereof” (ASTRAZENECA PHARMACEUTICALS LP, priority 2011, published 2014).

No end group written: not given here.

This assay concerns the target amylin receptor in membranes prepared from the nucleus accumbens portion of the brain (rat) (rat). Kind of assay: displacement of 125I-rat amylin from rat nucleus accumbens membranes.
In the case of mPEG40KD-CNTATCATQRLANFLVRSSNNLGPVLPPTNVGSNTY-NH2 (ends and bridges not checked) [Cmpd 20, mPEG40KD-Cmpd 2], the IC50 came to 78 nM.
The value for KCNTATCATQRLANFLVRSSNNLGPK(Y‑shaped‑mPEG40KD)LPPTNVGSNTY-NH2 (ends and bridges not checked) [Cmpd 27, [K^26(Y-shaped-mPEG4OKD)]-Cmpd 5] was 470 nM; that for CNTATCATQRLANFLVRSSK(mPEG40KD)NLGPVLPPTNVGSNTY-NH2 (ends and bridges not checked) [Cmpd 22, [K^21(mPEG40KD)]-Cmpd 4] was 112 nM; that for CNTATCATQRLANFLVRSSNNLGPVLPPTNVGSNTY-NH2 (ends and bridges not checked) [Cmpd 2 ([desLys^1]-Cmpd 1)] was 0.42 nM.
Consider KCNTATCATQRLANFLVRSSK(mPEG40KD)NLGPVLPPTNVGSNTY-NH2 (ends and bridges not checked) [Cmpd 21, [K^21(mPEG40KD)]-Cmpd 3], for which the IC50 turned out to be 104 nM. Compared with the last molecule, the IC50 is about 250-fold higher.
In turn, CNTATCATQRLANFLVRSSNNLGPVLPPTK(mPEG40KD)VGSNTY-NH2 (ends and bridges not checked) [Cmpd 26, [K^31(mPEG40KD)]-Cmpd 8] showed an IC50 of 75 nM.
Molecule KCNTATCATQRLANFLVRSSNNLGPVLPPTK(mPEG40KD)VGSNTY-NH2 (ends and bridges not checked) [Cmpd 25, [K^31(mPEG40KD)]-Cmpd 7] displayed an IC50 of 86 nM.
The value for CNTATCATQRLANFLVRSSNNLGPK(mPEG40KD)LPPTNVGSNTY-NH2 (ends and bridges not checked) [Cmpd 24, [K^26(mPEG40KD)]-Cmpd 6] was 54 nM; that for KCNTATCATQRLANFLVRSSNNLGPK(mPEG40KD)LPPTNVGSNTY-NH2 (ends and bridges not checked) [Cmpd 23, [K^26(mPEG40KD)]-Cmpd 5] was 66 nM.

For orientation: IC50 means the concentration at which inhibition is half-maximal.
